Assay results: paper PMC4598844, “BAP1 promotes breast cancer cell proliferation and metastasis by deubiquitinating KLF5” (Nature Communications, 2015)

Target: T1, GST-BAP1, purified recombinant (human, UniProt Q92560 1-729)
T1 construct: BRCA1-associated protein 1 (BAP1), human, wild type, cloned from MCF10A cells into pGEX-6p-1; also called purified GST-BAP1; source: E. coli BL21 (DE3), purified (glutathione sepharose 4B)
T1 sequence (looked up): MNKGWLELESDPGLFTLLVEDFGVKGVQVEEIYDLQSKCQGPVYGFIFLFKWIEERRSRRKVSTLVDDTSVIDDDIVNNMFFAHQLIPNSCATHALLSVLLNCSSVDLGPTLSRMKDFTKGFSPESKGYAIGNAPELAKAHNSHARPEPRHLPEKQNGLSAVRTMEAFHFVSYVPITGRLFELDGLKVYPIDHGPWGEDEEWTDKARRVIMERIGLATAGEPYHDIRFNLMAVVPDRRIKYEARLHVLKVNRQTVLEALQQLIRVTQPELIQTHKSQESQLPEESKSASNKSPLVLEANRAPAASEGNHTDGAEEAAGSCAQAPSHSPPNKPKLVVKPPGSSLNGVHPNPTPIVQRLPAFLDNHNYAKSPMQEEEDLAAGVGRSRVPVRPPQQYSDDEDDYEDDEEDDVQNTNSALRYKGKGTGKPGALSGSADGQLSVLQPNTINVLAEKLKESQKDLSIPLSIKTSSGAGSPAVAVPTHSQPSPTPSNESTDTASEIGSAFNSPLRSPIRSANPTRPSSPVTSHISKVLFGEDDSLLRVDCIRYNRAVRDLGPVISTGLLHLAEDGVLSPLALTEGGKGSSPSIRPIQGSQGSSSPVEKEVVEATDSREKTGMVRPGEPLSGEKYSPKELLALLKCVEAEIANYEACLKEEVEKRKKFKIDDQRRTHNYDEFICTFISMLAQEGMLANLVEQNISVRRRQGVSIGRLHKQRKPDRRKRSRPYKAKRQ
Assay: pull-down; purified recombinant GST-BAP1 (and GST) pulled down with glutathione beads; KLF5-6 × His detected by WB
Conditions: both partners purified

B1: KLF5-6 × His, purified recombinant (natural protein)
chain: not shown
notes: Krüppel-like zinc-finger transcription factor 5 (KLF5), subcloned into the pET28-3C vector; The tag is printed after the protein's name; not repeated for this construct; source: E. coli BL21 (DE3), purified (Ni-NTA)
  binding result: binds
